According to article PMC7795263, “Chaperone-Assisted Mitotic Actin Remodeling by BAG3 and HSPB8 Involves the Deacetylase HDAC6 and Its Substrate Cortactin” (International Journal of Molecular Sciences, 2020):

Target: T1, myc-cortactin (UniProt Q60598 1-546)
T1 construct: cortactin, myc-tagged plasmid, gift from Dr Zhan (Holland Laboratory, American Red Cross); human cortactin would be Q14247; The PLA used an anti-cortactin antibody, which may also detect endogenous human cortactin of HeLa cells; source: HeLa (parental), transfected (Lipofectamine 2000), in fixed cells
Test: proximity ligation; Duolink in situ PLA with anti-GFP and anti-cortactin antibodies in fixed HeLa cells cotransfected with GFP-HDAC6 and myc-cortactin; asynchronous or synchronized in mitosis (double thymidine block, release 8-9 h); siCtl or siBAG3; PLA foci per cell counted by confocal microscopy
Conditions: partners not purified

T1 sequence (Q60598 whole entry): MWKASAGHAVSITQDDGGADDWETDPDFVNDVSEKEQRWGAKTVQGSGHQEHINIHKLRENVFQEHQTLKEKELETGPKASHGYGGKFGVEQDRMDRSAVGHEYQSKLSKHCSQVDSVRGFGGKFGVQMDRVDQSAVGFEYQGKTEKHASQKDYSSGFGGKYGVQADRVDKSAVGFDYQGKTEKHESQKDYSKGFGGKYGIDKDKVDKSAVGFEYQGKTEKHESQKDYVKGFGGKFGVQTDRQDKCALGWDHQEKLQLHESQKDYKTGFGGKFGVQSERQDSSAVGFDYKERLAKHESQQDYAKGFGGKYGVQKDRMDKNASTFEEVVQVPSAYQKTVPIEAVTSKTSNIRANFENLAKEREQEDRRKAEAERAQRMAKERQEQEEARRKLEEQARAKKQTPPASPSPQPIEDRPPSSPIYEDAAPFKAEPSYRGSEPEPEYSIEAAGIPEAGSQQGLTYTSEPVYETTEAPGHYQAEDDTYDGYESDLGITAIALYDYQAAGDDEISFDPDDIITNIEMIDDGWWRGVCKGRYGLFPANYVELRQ

B1: GFP-HDAC6 (histone deacetylase 6, WT) (enzyme, UniProt Q9UBN7 1-1215, looked up)
chain: MTSTGQDSTTTRQRRSRQNPQSPPQDSSVTSKRNIKKGAVPRSIPNLAEVKKKGKMKKLGQAMEEDLIVGLQGMDLNLEAEALAGTGLVLDEQLNEFHCLWDDSFPEGPERLHAIKEQLIQEGLLDRCVSFQARFAEKEELMLVHSLEYIDLMETTQYMNEGELRVLADTYDSVYLHPNSYSCACLASGSVLRLVDAVLGAEIRNGMAIIRPPGHHAQHSLMDGYCMFNHVAVAARYAQQKHRIRRVLIVDWDVHHGQGTQFTFDQDPSVLYFSIHRYEQGRFWPHLKASNWSTTGFGQGQGYTINVPWNQVGMRDADYIAAFLHVLLPVALEFQPQLVLVAAGFDALQGDPKGEMAATPAGFAQLTHLLMGLAGGKLILSLEGGYNLRALAEGVSASLHTLLGDPCPMLESPGAPCRSAQASVSCALEALEPFWEVLVRSTETVERDNMEEDNVEESEEEGPWEPPVLPILTWPVLQSRTGLVYDQNMMNHCNLWDSHHPEVPQRILRIMCRLEELGLAGRCLTLTPRPATEAELLTCHSAEYVGHLRATEKMKTRELHRESSNFDSIYICPSTFACAQLATGAACRLVEAVLSGEVLNGAAVVRPPGHHAEQDAACGFCFFNSVAVAARHAQTISGHALRILIVDWDVHHGNGTQHMFEDDPSVLYVSLHRYDHGTFFPMGDEGASSQIGRAAGTGFTVNVAWNGPRMGDADYLAAWHRLVLPIAYEFNPELVLVSAGFDAARGDPLGGCQVSPEGYAHLTHLLMGLASGRIILILEGGYNLTSISESMAACTRSLLGDPPPLLTLPRPPLSGALASITETIQVHRRYWRSLRVMKVEDREGPSSSKLVTKKAPQPAKPRLAERMTTREKKVLEAGMGKVTSASFGEESTPGQTNSETAVVALTQDQPSEAATGGATLAQTISEAAIGGAMLGQTTSEEAVGGATPDQTTSEETVGGAILDQTTSEDAVGGATLGQTTSEEAVGGATLAQTTSEAAMEGATLDQTTSEEAPGGTELIQTPLASSTDHQTPPTSPVQGTTPQISPSTLIGSLRTLELGSESQGASESQAPGEENLLGEAAGGQDMADSMLMQGSRGLTDQAIFYAVTPLPWCPHLVAVCPIPAAGLDVTQPCGDCGTIQENWVCLSCYQVYCGRYINGHMLQHHGNSGHPLVLSYIDLSAWCYYCQAYVHHQALLDVKNIAHQNKFGEDMPHPH
notes: histone deacetylase 6 (HDAC6), wild type, expressed from peGFP.N1-HDAC6 WT (Addgene 36188); The pEGFP-N1 vector usually places GFP at the C-terminus of the insert (surmised); The Addgene 36188 insert is recalled to be human HDAC6; also called peGFP.N1-HDAC6 WT; source: HeLa (parental), transfected (Lipofectamine 2000), in fixed cells
fold change of PLA foci per cell, siBAG3 mitotic cells against siCtl mitotic cells: ~2 fold
